From patent publication US20080226632 (published 2008)
Blank lines part the entries; values can stand above or below the binder they belong to.

Experiments:
[1] = target: EGF (human, UniProt P01133)
[2] = target: T1, HB-EGF (human, UniProt Q99075)
T1 chain: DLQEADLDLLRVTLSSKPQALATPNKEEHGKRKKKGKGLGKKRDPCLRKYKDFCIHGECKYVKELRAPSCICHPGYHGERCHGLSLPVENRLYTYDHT

EGF, sequence (P01133 971-1023): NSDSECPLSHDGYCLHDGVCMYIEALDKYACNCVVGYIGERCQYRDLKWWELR

- binding result [1]: no binding
- binding result [2]: no binding
B1: PAR80 (antibody, V domains shown)
VH: EVQLQQSGAELVRSGASVKLSCTASGFNIKDYYIHWVKQRPEQGLEWIGCIDPENGDTEYAPNFQGRATMTADTSSNTAYLQLSSLTSEDTAVYYCYGGTITFAYWGQGTLVTVSA
VL: QAVVTQESALTTSPGETVTLTCRSSTGAVTTSNSANWVQEKPDHLFTGLIGGTINRVPGVPARFSGSLIGDKAALTITGAQTEDEAIYFCALWYSNHWVFGGGTKLTVLG

- binding result [1]: no binding
- binding result [2]: no binding
B2: PAR34 (antibody, V domains shown)
VH: EIQLQQSGPELVKPGASVKVSCKASGYAFTNYNMYWVKQSHGKSLEWIGYIDPYYGDPGYSQKFKGKATLTVDKSSSTAYMHLNSLTSEDSAVYYCARRGNFPYYFDYWGQGTTLTVSS
VL: DIKMTQSPSSMYASLGERVTITCKASQDINSYLSWFQQKPGKSPKTLIYRANRLVDGVPSRFSGSGSGQDYSLTISSLEYEDMGIYYCLQYDEFPYTFGGGTKLEIK
